The record followed here is publication PMC7979726 (Nature Communications, 2021).

The experiment deals with T1, Mcm3 (S. cerevisiae, UniProt P24279 1-971).
T1 construct: Mcm3, S. cerevisiae; native protein without extra amino acids after SUMO cleavage; source: Champion pET SUMO Protein Expression System (Invitrogen); purified individually; protocols in Supplementary Data; not shown: SUMO, N-terminal, cleaved
Put plainly: SEC; individually purified subunits mixed and the complex (Mcm5/3/7, Mcm2/6/4 or MCM-Cdt1) isolated by gel filtration. The note with it: both partners purified.

T1 sequence (P24279 whole entry): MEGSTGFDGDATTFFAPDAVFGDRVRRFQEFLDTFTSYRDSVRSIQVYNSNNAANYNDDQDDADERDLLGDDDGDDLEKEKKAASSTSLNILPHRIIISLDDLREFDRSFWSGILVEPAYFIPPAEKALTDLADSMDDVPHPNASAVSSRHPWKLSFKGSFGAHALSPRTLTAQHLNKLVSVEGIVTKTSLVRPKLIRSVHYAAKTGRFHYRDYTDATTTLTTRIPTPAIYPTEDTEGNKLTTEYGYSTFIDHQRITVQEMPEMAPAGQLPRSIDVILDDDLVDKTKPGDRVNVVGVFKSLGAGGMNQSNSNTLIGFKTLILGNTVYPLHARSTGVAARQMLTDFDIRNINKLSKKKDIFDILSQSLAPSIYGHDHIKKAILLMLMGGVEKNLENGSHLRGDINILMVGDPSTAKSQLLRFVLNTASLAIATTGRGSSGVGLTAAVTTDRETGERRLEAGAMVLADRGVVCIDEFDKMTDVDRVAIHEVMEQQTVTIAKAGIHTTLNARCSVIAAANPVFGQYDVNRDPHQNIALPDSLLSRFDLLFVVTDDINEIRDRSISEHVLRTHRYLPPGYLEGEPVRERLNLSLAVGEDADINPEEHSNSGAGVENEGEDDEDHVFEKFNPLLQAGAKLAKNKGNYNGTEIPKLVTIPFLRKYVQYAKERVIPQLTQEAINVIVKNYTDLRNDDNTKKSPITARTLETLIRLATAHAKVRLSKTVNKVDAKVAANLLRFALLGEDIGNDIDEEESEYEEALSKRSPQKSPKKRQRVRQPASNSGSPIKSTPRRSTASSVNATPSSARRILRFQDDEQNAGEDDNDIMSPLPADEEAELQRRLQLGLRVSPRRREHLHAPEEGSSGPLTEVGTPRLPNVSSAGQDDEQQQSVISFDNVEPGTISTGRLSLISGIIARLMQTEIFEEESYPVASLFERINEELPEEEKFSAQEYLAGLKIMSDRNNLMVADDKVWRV

B1: Mcm7 (natural protein, S. cerevisiae, UniProt P38132 1-845, looked up)
chain: MSAALPSIQLPVDYNNLFNEITDFLVTFKQDTLSSDATRNENEDENLDAENIEQHLLEKGPKYMAMLQKVANRELNSVIIDLDDILQYQNEKFLQGTQADDLVSAIQQNANHFTELFCRAIDNNMPLPTKEIDYKDDVLDVILNQRRLRNERMLSDRTNEIRSENLMDTTMDPPSSMNDALREVVEDETELFPPNLTRRYFLYFKPLSQNCARRYRKKAISSKPLSVRQIKGDFLGQLITVRGIITRVSDVKPAVEVIAYTCDQCGYEVFQEVNSRTFTPLSECTSEECSQNQTKGQLFMSTRASKFSAFQECKIQELSQQVPVGHIPRSLNIHVNGTLVRSLSPGDIVDVTGIFLPAPYTGFKALKAGLLTETYLEAQFVRQHKKKFASFSLTSDVEERVMELITSGDVYNRLAKSIAPEIYGNLDVKKALLLLLVGGVDKRVGDGMKIRGDINVCLMGDPGVAKSQLLKAICKISPRGVYTTGKGSSGVGLTAAVMKDPVTDEMILEGGALVLADNGICCIDEFDKMDESDRTAIHEVMEQQTISISKAGINTTLNARTSILAAANPLYGRYNPRLSPLDNINLPAALLSRFDILFLMLDIPSRDDDEKLAEHVTYVHMHNKQPDLDFTPVEPSKMREYIAYAKTKRPVMSEAVNDYVVQAYIRLRQDSKREMDSKFSFGQATPRTLLGIIRLSQALAKLRLADMVDIDDVEEALRLVRVSKESLYQETNKSKEDESPTTKIFTIIKKMLQETGKNTLSYENIVKTVRLRGFTMLQLSNCIQEYSYLNVWHLINEGNTLKFVDDGTMDTDQEDSLVSTPKLAPQTTASANVSAQDSDIDLQDA
notes: Mcm7, S. cerevisiae; native protein without extra amino acids after SUMO cleavage; source: Champion pET SUMO Protein Expression System (Invitrogen); purified individually; protocols in Supplementary Data; not shown: SUMO, N-terminal, cleaved
For the molecule B1, the binding result is reported as “binds”.
